The text below walks through data of patent publication US20170096461A1 (IMMATICS BIOTECHNOLOGIES, published 2017).

This assay deals with T1, HLA-A*02:01 (peptide-receptive MHC class I monomer after UV-ligand exchange) (human).
T1 construct: Monomers made with a UV-sensitive peptide that is cleaved by UV and exchanged for the test peptide; captured on streptavidin plates; also called MHC molecules
Briefly: UV-ligand exchange + anti-b2m ELISA; exchange yield grade: + >=10%, ++ >=20%, +++ >=50, ++++ >=75%. The source says: Candidate peptides for T cell based therapies according to the present invention were further tested for their MHC binding capacity (affinity). The individual peptide-MHC complexes were produced by UV-ligand exchange, where a UV-sensitive peptide is cleaved upon UV-irradiation, and exchanged with the peptide of interest as analyzed. Only peptide candidates that can effectively bind and stabilize the peptide-receptive MHC molecules prevent dissociation of the MHC complexes. To determine the yield of the exchange reaction, an ELISA was performed based on the detection of the light chain (β2m) of stabilized MHC complexes. The assay was performed as generally described in Rodenko et al. (Rodenko et al., 2006).
96 well MAXISorp plates (NUNC) were coated over night with 2 ug/ml streptavidin in PBS at room temperature, washed 4× and blocked for 1 h at 37° C. in 2% BSA containing blocking buffer. Refolded HLA-A*02:01/MLA-001 monomers served as standards, covering the range of 15-500 ng/ml. Peptide-MHC monomers of the UV-exchange reaction were diluted 100 fold in blocking buffer. Samples were incubated for 1 h at 37° C., washed four times, incubated with 2 ug/ml HRP conjugated anti-β2m for 1 h at 37° C., washed again and detected with TMB solution that is stopped with […]. Absorption was measured at 450 nm. Candidate peptides that show a high exchange yield (preferably higher than 50%, most preferred higher than 75%) are generally preferred for a generation and production of antibodies or fragments thereof, and/or T cell receptors or fragments thereof, as they show sufficient avidity to the MHC molecules and prevent dissociation of the MHC complexes.

With TLIQFTVKL [peptide TLIQFTVKL (SEQ ID NO: 104)], the peptide exchange yield lay in the range of 50 to 75%.
For ALLDGTVFEI [peptide ALLDGTVFEI (SEQ ID NO: 97)], the peptide exchange yield was in the range of 50 to 75%.
With VADPETRTV [peptide VADPETRTV (SEQ ID NO: 100)] the figure was 10 to 20%.
Turning to SLLEYQMLV [peptide SLLEYQMLV (SEQ ID NO: 103)], the peptide exchange yield is no less than 75%.
With AMNSQILEV [peptide AMNSQILEV (SEQ ID NO: 101)] the figure was 50 to 75%; with ALFARPDLLLL [peptide ALFARPDLLLL (SEQ ID NO: 102)], no less than 75%.
For ALVDHLNVGV [peptide ALVDHLNVGV (SEQ ID NO: 98)], the peptide exchange yield fell in the range of 50 to 75%.
Regarding ALYSKGILL [peptide ALYSKGILL (SEQ ID NO: 95)], the peptide exchange yield is no less than 75%.
With NLLKLIAEV [peptide NLLKLIAEV (SEQ ID NO: 96)], the peptide exchange yield is no less than 75%.
Turning to QMLEAIKALEV [peptide QMLEAIKALEV (SEQ ID NO: 99)], the peptide exchange yield is no less than 75%.
